From paper PMC3462190, “A Peptidic Unconjugated GRP78/BiP Ligand Modulates the Unfolded Protein Response and Induces Prostate Cancer Cell Death” (PLoS ONE, 2012)

What was measured:
[1] = system: unfolded protein response in 22Rv.1 cells; assay: UPR modulation, Western blot / PCR in 22Rv.1 cells; format: cell-based
Experimental: Unless otherwise stated, stable transfection was carried out in 22Rv.1 or BPH-1 cells with 10 µg of plasmid DNA using FuGene 6™ (Roche Diagnostics Mannheim, Germany) Stably transfected 22Rv.1 cells were selected with 0.8 mg/ml while BPH-1 cell clones were selected with 1.2 mg/ml G418. LNCaP, PC3, DU145, PNT-2 and RWPE-1 cell clones were selected with 1 mg/ml G418. Specific downregulation of GRP78 expression was achieved by transfecting siRNA-duplexes (GRP78∶5′-[…]-3′) twice in 72 h using HiPerfect™ (Qiagen Hilden, Germany). siRNA against GFP (5′-[…]-3′) was used as a control. Western blot analysis was performed as previously described.
Figure 3 The Bag-1 peptide modulates the UPR and sensitizes 22Rv.1 cells to ER-stress. A. UPR modulation upon Bag-1 peptide overexpression. Pooled clones of 22Rv.1 cells transfected with pcDNA3.1-HA-Bag-1 68 amino acid peptide or an empty expression vector were treated with 300 nM thapsigargin (TG) for the indicated time points. Cells were lysed and subjected to Western blot analysis using the indicated antibodies or phospho-specific antibodies. B. The Bag-1 peptide sensitizes 22Rv.1 cells to ER-stress induced apoptosis. Pooled clones of 22Rv.1 transfected with the Bag-1 peptide or the empty expression vector were treated with thapsigargin (TG) or glucose-starved (GS) for 24 h. The cells were lysed and subjected to Western blot analysis using anti-PARP and caspase 4 specific antibodies. Anti-HA antibody was used to detect the HA-Bag-1 peptide. […] C. […] Pooled clones of 22Rv.1 expressing HA-tagged Bag-1 peptide or an empty expression vector were transfected with GRP78/BiP siRNA or control GFP siRNA. The cells were lysed and Western blot was carried out with anti-PARP, anti-GRP78 and anti-HA antibodies. β-actin antibody was used to determine the level of protein loaded on the gel.
A. Real time PCR analysis of ATF6 gene expression following thapsigargin (300 nM) treatment for the indicated time points in 22Rv.1 cell clones with empty vector control (open bars) and peptide-expressing clones (filled bars). The RNA was extracted using PeqGold RNA pure (PeqLab, Germany) kit according to manufacturer’s instructions. For gene expression analysis, the following primers were used: Rib36 forward 5′-[…]-3′; reverse 5′-CCGGATATGAGGCAGCAG-3′; ATF6 forward 5′-[…]-3′; reverse 5′-[…]-3′. Each bar represents the mean of three independent experiments ± SEM. *p<0.05. B. Western blot analysis of ATF6 and its cleaved product (cATF6) in LNCaP cells stably expressing the empty vector control or the Bag-1 peptide. Anti-ATF6 specific antibody and an anti-HA specific antibody were used for the Western blot. β-actin antibody was used to determine equal loading control. Mouse monoclonal anti-ATF6 antibody was purchased from Imgenex (Hamburg, Germany), mouse monoclonal anti-HA antibody (HA.11 clone 16B12) was purchased from Covance (Munich, Germany) and anti-β-actin antibody was purchased from Abcam (Cambridge, UK). (TIF) Click here for additional data file.
Supplementary file pone.0045690.s004.tif: Figure S4 The Bag-1 peptide induces GCN2 phosphorylation. 22Rv.1 cells stably expressing the empty vector control or the Bag-1 peptide were treated with thapsigargin (300 nM) for 16 h and subjected to Western blot analysis using anti-phospho-GCN2, GCN2 and HA-specific antibodies. The filters used in this experiment for the GCN2 signals are the same filters used in Figure 3A. The HA-Bag-1 peptide and the β-actin signals are therefore identical to that of Figure 3A. (TIF) Click here for additional data file.

[2] = system: LNCaP xenograft tumor; assay: LNCaP tumor xenograft study; format: in vivo, athymic nude mice; conditions: mean and SD of 4–10 tumors
Experimental: All animal experiments were performed according to European and German statutory regulations. For generation of xenograft models 5×10^6 LNCaP cells were resuspended in a solution of 50% Matrigel® (BD Bioscience, Heidelberg, Germany) in PBS or 5×10^6 22Rv.1 cells in 100 µl of PBS were subcutaneously injected into both flanks of 6–8 week-old athymic nude mice. Tumor size was measured with a caliper every week. Tumors derived from the […], […] Tumor size was assessed measuring three perpendicular diameters according to the formula: V = (1/6) [π] (d1d2d3), where π is a mathematic constant and d1, d2 and d3 represent the three spatial dimensions (width, depth and height). Mice were euthanized by cervical dislocation and the tumors removed for further analysis.

[3] = system: 22Rv.1 xenograft tumor; assay: TUNEL assay on xenograft tumor sections; format: in vivo, athymic nude mice; conditions: 22Rv.1 xenografts, clones P25, P29 and P42 vs V18, V19 and V33
Experimental: Tissues were fixed in 10% formalin for 16 h at room temperature, stored in ethanol (50%), paraffin embedded, and sectioned 5 µm thick with a Leica RM 2155 microtome. Apoptotic cells were detected via terminal deoxynucleotidyl transferase-mediated deoxyuridine-triphosphate-biotin nick end labeling (TUNEL) assay using the DNA fragmentation ApopTag® peroxidase in situ apoptosis detection kit (Millipore, Schwalbach, Germany).
Figure 4 The Bag-1 peptide inhibits prostate cancer cell growth in vivo. A. Stable clones of 22Rv.1 cells show reduced cell viability in vitro. Stable clones were seeded in a 96-well plate and the cell number in each well was estimated by measuring the ratio between the wavelength of excitation and emission 560/590 nm using the CellTiter-Blue™ proliferation assay. The bar charts represent the mean of at least four independent experiments ±SD (*p<0.05). B. Determination of the level of the Bag-1 expressed in the 22Rv.1 clones. Cellular extracts of 22v.1 stable clones were subjected to Western blot analysis. An anti-HA antibody was used to detect the peptide and an anti-β-actin antibody for equal loading control. […] Tumor size was measured once per week using a caliper and expressed as tumor volume in mm^3. […] Nuclei are stained blue-purple with hematoxylin while apoptotic cells detected with the TUNEL assay are stained brown. […]

[4] = Bag-1 peptide expressing 22Rv.1 cells, thapsigargin 300 nM, 16 h
[5] = stable Bag-1 peptide expression, 22Rv.1, thapsigargin 300 nM
[6] = stable Bag-1 peptide expression, 22Rv.1, thapsigargin 300 nM, vs vector control

B1: Bag-1 peptide: internal sequence of 68 amino acids of Bag-1 (Bag1-L 202–269), HA-tagged, expressed from pcDNA3 (peptide)
chain: TPLSALGIQDGCRVMLIGKKNSPQEEVELKKLKHLEKSVEKIADQLEELNKELTGIQQGFLPKDLQAE
modifications: also: HA tag, end not given here
[1]; Bag-1 peptide expressing 22Rv.1 cells, thapsigargin 300 nM
  CHOP expression: increased expression of the pro-apoptotic factor CHOP
[1]; [4]
  GCN2: upregulated in the peptide expressing cells
  GCN2 phosphorylation: enhanced phosphorylation of GCN2
[1]; [5]
  ATF4 activation: activation of the downstream target ATF4
  eIF2α phosphorylation: increase in eIF2α phosphorylation
  thapsigargin-induced expression of GRP78/BiP: inhibition of the thapsigargin-induced expression of GRP78/BiP
[1]; [6]
  cleaved ATF6: significant reduction of cleaved ATF6
  phosphorylation of PERK and IRE1: reduced ER stress-induced phosphorylation of PERK and IRE1
[2]; LNCaP clone P12, termination 8 weeks, vector V82 0.65±0.29 g (8 weeks)
  Tumor weight, clone P12: 0.04 ± 0.03 g
[2]; LNCaP clone P35, termination 6 weeks, vector V69 0.22±0.03 g (6 weeks)
  Tumor weight, clone P35: 0.05 ± 0.01 g
[3]
  TUNEL positive cells (apoptosis): strong signals indicative of massive apoptosis
